Key:
[1] = molecular target: ParGβCopG (UniProt Q9KJ82); experiment: cross-linking
[2] = molecular target: ParGβMetJ (UniProt Q9KJ82); experiment: cross-linking

Row | Substance | stoichiometry N [1] | stoichiometry N [2]
1 | ParGβCopG (from UniProt Q9KJ82 1-76) | 2 | 
2 | ParGβMetJ (from UniProt Q9KJ82 1-76) |  | 2

Source: article PMC3413123
